According to the supplement of paper PMC9170038:

Test system: MS2 coat protein
Assay: apparent KD of MS2 coat protein; designed switch direction (-1 OFF switch, 1 ON switch): -1; higher = weaker reporter binding
How it was run: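 Each step of the titration lasted 0.8–1.5 h at the lowest concentration and 10–20 min at the highest. The protein, SNAP-549-labelled MS2 coat protein, went from 0.7 or 1.5 nM doubling to 3 µM over RNA switches transcribed on Illumina chips by stalled E. coli RNA polymerase. Normalised cluster fluorescence was curve-fitted, and the per-design median over clusters is given as apparent KD.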

[1] = Eterna round: R95, input ligand: FMN 200 uM
[2] = Eterna round: R95, input ligand: microRNA oligo, concentration not stated
[3] = Eterna round: R95, input ligand: none
[4] = input ligand: microRNA oligo, concentration not stated

Sequence	apparent KD of MS2 coat protein [1]	apparent KD of MS2 coat protein [2]	apparent KD of MS2 coat protein [3]	apparent KD of MS2 coat protein [4]	apparent KD of MS2 coat protein (input ligand: FMN 200 uM)	apparent KD of MS2 coat protein (input ligand: none)
AAAUACAAGUAAGGAUUCUACAUGAGGAUCACCCAUGUGCUCGUCUUAUAAAGUACUAUCACGAAAGUGAUAGUACA [Sensor 3, v1 - 38] (puzzle: Sensor v3, turn-off variant 1)	22 nM	190 nM	26.2 nM			
AAAUACCGGUGAGGAUAUUUAUAAUAGAACUUUAUGAUAUACAUGAGGAUCACCCAUGUUACUUUAAAGAAGGCAUCGGAUAAA [Mat - Exclusion NG 2 - Mod of JL - D89] (Eterna round: R96, puzzle: Exclusion NG 2)				13.9 nM		
AAAUAGCAUGAGGAUAUUGGACUGGAUUCAGUGCGAGAAGGCAUGACAUGAGGAUCACCCAUGUUGUGUUGGGA [EX6 #9] (Eterna round: R97, puzzle: Exclusion 6)					42.6 nM	17 nM
AAAUAGCUAGAGGAUAUCGGAUAGGAUUUAUUACGAGAAGGUUAGACAUGAGGAUCACCCAUGUUCUGUUGGGA [EX6 #21] (Eterna round: R97, puzzle: Exclusion 6)					86.9 nM	34.6 nM
AAAUAGUGAGGAUAUUAGUUGUACGUCAAUAGACGUAUAAGUGAGAAGGCACAUGAGGAUCACCCAUGUUCCAG [Omei Ex4 Mod of Mat's R95 mod of Omei v9] (Eterna round: R97, puzzle: Exclusion 4)					48.4 nM	22.2 nM
AAAUCCGCUGAGGAUAUUAUCAGUGAGAGCUGAUGAGAAGGCGGUACAUGAGGAUCACCCAUGUCUAUGGGCAA [Ex-6 Malc#25] (puzzle: Exclusion 6)	358 nM	208 nM	295 nM			
AAAUCGGAGGAGGAUAUCGUACAGGAAACGGUGCGAGAAGGUUUCACAUGAGGAUCACCCAUGUCAAAUAGCGA [EX6 #58] (Eterna round: R97, puzzle: Exclusion 6)					21 nM	16.4 nM
AAAUGCAAGUAAAGAUCUUACAUGAGGAUCACCCAUGUGCUCGUCUUAUAAAGUACUAUCACGAAAGUGAUAGUACA [Sensor 3, v1 - 27] (puzzle: Sensor v3, turn-off variant 1)	18.5 nM	76.9 nM	19.3 nM			
AAAUUAGCAAGUAGGUCCGACAUGAGGAUCACCCAUGUUAUCUGAAAUAACGCUGCAUGAAAGUGCGCUCGUCUUAG [Sensor-V1 #9] (Eterna round: R97, puzzle: Sensor, turn-off variant 1)					65.3 nM	73.9 nM
AAAUUGCUAGAGGAUAUCGGAUAGAAUUUAUUACGAGAAGGUUAGACAUGAGGAUCACCCAUGUUCUGUUGGGA [EX6 #23] (Eterna round: R97, puzzle: Exclusion 6)					70.1 nM	29.1 nM
AACAACUCUGUGAGGAUAUGCAAUUGUUGAUCAAGGCAGAAGGCACAUGAGGAUCACCCAUGUUCCUACAAGGG [Reatanan] (puzzle: Brourd's mod of Exclusion 4)		46.5 nM				
AACAAGUGAGGAUAUGAACCACUUGCCCACGCAUGCGUGGAUCAGAAGGCACUUGAGGAUCACCCAAGUCCUAA [Texeusso] (Eterna round: R97, puzzle: Exclusion 4)					49.7 nM	21.3 nM
AACAUCGUAGGAUAUUCGUGCUCAGACAUGAGGAUCACCCAUGUUUGGUGGGUUGGAGAAGGAGAAGGGCGAUGGA [EX5 #18] (Eterna round: R97, puzzle: Exclusion 5)					67.9 nM	92.8 nM
AACAUGGUAAAGGAUAUUGUCGCAGAAUGCGAUCAAGAAGGUUACACAUGAGGAUCACCCAUGUGGAAUCCAUC [Eternabot (Original) Solution 24] (Eterna round: R97, puzzle: Exclusion 6)					63.2 nM	17.2 nM
AACCAGCGAGGAUAUUGUUGAUAAAACAUGAGGAUCACCCAUGUCACGUGAUCUUCCCAACAAGAAGGUGCACUAA [Xeoratdior] (Eterna round: R97, puzzle: Exclusion 5)					652 nM	301 nM
AACCCUCGUCAAGGAUAUACAUAGAAAAGCUUGGUAGAAGGUGACAUGAGGAUCACCCAUGUAAAAGGCCUGUCCAUUCAGGCC [Isonce] (Eterna round: R96, puzzle: Exclusion NG 1)				67.8 nM	96.4 nM	78.1 nM
AACCCUGAUGACAAAUUACAUGAGGAUCACCCAUGUGCCUCACAGGAUAUCCCAGCACGUCGCUAGGAGAAGGGUGACGCGCCA [Tienen] (Eterna round: R96, puzzle: Exclusion NG 3)				25.1 nM	37.5 nM	30 nM

Sequence	apparent KD of MS2 coat protein [1]	apparent KD of MS2 coat protein [2]	apparent KD of MS2 coat protein [3]	apparent KD of MS2 coat protein [4]	apparent KD of MS2 coat protein (input ligand: FMN 200 uM)	apparent KD of MS2 coat protein (input ligand: none)
AACCGCAUAGGAUAUCGAGCAGAGGACUUGAGGAUCACCCAAGUCCUUGAGUUCUUUGUCCGAGAAGGAUGAACAU [Ususrace] (Eterna round: R97, puzzle: Exclusion 5)					13.7 nM	14.6 nM
AACCUGAGGCAAAGCUUUAGGUGUACAUGAGGAUCACCCAUGUAGGAUAUGGUAGGCAAAGCUUACCAGAAGGACAUUGGCGUA [Mat - Exclusion NG 3 - Mod of JL - D41] (Eterna round: R96, puzzle: Exclusion NG 3)				93.8 nM	418 nM	119 nM
AACCUGAGGCUUUGCUUUAGGUGUACAUGAGGAUCACCCAUGUAGGAUAUGGUAGGCAAAGCUUACCAGAAGGACAUGUUAAUU [Mat - Exclusion NG 3 - Mod of JL - D37] (Eterna round: R96, puzzle: Exclusion NG 3)				44.3 nM	122 nM	59.3 nM
AACCUGGCUGUUCACAGGAACAUGAGGAUCACCCAUGUCGUGGGUAGAUCCCUCCCUGGGAAAUCUGCUCGUCUUAU [Cac Sensor turn off v1 sub13] (Eterna round: R97, puzzle: Sensor, turn-off variant 1)					34.6 nM	34.2 nM
AACCUUUAGUUAGGAUAUCGCAUCACCGUCAAGUGAGAAGGGACAUGAGGAUCACCCAUGUCUUCCGUGGGCUACACUGCUUCU [Eternabot solution 5] (Eterna round: R96, puzzle: Exclusion NG 1)				19.4 nM	19 nM	27.4 nM
AACGUCGAAGGAUAUACAUGAGGAUCACCCAUGUGGGACCUGUAAUCUCACCCAUCGUGUAGAAGGUUGAGGUA [Learberi] (Eterna round: R97, puzzle: Exclusion 3)					29.9 nM	35.6 nM
AACGUGCAGCUUUGCUGUACGCGUACAUGAGGAUCACCCAUGUAGGAUAUGGUACGCAAAGCGUGCUAGAAGGAUAUGGAGAAA [Mat - Exclusion NG 3 - Mod of JL - D82] (Eterna round: R96, puzzle: Exclusion NG 3)				11.5 nM	14.7 nM	16.2 nM
AACGUGGCAAAGGAUAUCCACACGGCAAAGCCGGGAGAAGGUUGCACAUGAGGAUCACCCAUGUGAACCAAACA [Onsozamati] (puzzle: Exclusion 6)		13.6 nM				
AACUGGACAGGAUAUGUUCUUGAGCACUUGAGGAUCACCCAAGUCAUCAAGAACUCAGGCACAGAAGGGUUUAUGU [salish99_ex5_r4_002] (Eterna round: R97, puzzle: Exclusion 5)					45.9 nM	13.6 nM
AACUUACAUGAGGAUCACCCAUGUCAGGAUAUCGAAAUUGGCCUGCAAUUACAGGCGACGAGAAGGGACGUUUU [EX1 B.24] (Eterna round: R97, puzzle: Exclusion 1)					29.3 nM	16.9 nM
AAGAAACAUGAGGAUCACCCAUGUGAGGAUAUGAAAAAGAAAAGAAAAGAAAGAAGAAUCAGAAGGCACAAAGG [Nebkaure Khety II] (Eterna round: R96, puzzle: Exclusion 1)				24.3 nM		
AAGAAACAUGAGGAUCACCCAUGUGAGGAUAUGAAAAAGAAAAGAAAAGAAAGAAGAAUCAGAAGGCACAAAGG [salish99-ex1_r3_019] (puzzle: Exclusion 1)	40.5 nM	30.7 nM	34 nM			
AAGAAACAUGAGGAUCACCCAUGUGAGGAUAUGAACAAGAAAAGAAAAGAAAGAAGAAUCAGAAGGCACAAAGG [salish99-ex1_r3_047] (puzzle: Exclusion 1)	102 nM	49.2 nM	84.7 nM			
AAGAAACAUGAGGAUCACCCAUGUGAGGAUAUGACCAAGAAAAGAAAAGAAAGAAGAGUCAGAAGGCACAAAGG [salish99-ex1_r3_066] (puzzle: Exclusion 1)	99.7 nM	56.6 nM	181 nM			
AAGAAACAUGAGGAUCACCCAUGUGAGGAUAUGACGAAGAAAAGAAAAGAAAGAAGAUUCAGAAGGCACAAAGG [salish99-ex1_r3_061] (puzzle: Exclusion 1)	90.1 nM	42.9 nM	56.4 nM			
AAGAAACAUGAGGAUCACCCAUGUGAGGAUAUGAGCAAGAAAAGAAAAGAAAGAAGAUUCAGAAGGCACAAAGG [salish99-ex1_r3_059] (puzzle: Exclusion 1)	61.6 nM	39.4 nM	59.3 nM			
AAGAAACAUGAGGAUCACCCAUGUGAGGAUAUGAUGAAGAAAAGAAAAGAAAGAAGAAUCAGAAGGCACAAAGG [salish99-ex1_r3_043] (puzzle: Exclusion 1)	83.6 nM	48.2 nM	66.5 nM			
